B1: DNA repair protein rad60 (Schizosaccharomyces pombe (strain ATCC 38366 / 972)), Q9USX3 (parent)
chain: MDNLDEDDLAFFSKPIKKPPLNYAKQLIASSSDSEEESELDTNKQALEHINAQKNITHNENKSAEPLSRQSTILDADEGNQDVSDTTPNACLNEGRHSPKSAISCVTQPVSPVYNTRAAANLRNNSINSEAALSTTSSLLDDDFARRLEEIDRQVQEFEKSSSDMDVQIHTHKREIEEDDDNTSADVPLLKHSKSDHSTLYHSKSEFSTNEPVISVVLQLAVIGQRIPNSNISLPRDWEAPLFFKVKSNQQFRRVRIAYSERKKVDNVVLVFQNQRLWDYGTPKGAGMLKVDTRLVVHAYCHSDFISLKRIKELEVEKLSSVTEDSTAQTCKLITLLLRSSKSEDLRLSIPVDFTVKDLIKRYCTEVKISFHERIRLEFEGEWLDPNDQVQSTELEDEDQVSVVLD
partner: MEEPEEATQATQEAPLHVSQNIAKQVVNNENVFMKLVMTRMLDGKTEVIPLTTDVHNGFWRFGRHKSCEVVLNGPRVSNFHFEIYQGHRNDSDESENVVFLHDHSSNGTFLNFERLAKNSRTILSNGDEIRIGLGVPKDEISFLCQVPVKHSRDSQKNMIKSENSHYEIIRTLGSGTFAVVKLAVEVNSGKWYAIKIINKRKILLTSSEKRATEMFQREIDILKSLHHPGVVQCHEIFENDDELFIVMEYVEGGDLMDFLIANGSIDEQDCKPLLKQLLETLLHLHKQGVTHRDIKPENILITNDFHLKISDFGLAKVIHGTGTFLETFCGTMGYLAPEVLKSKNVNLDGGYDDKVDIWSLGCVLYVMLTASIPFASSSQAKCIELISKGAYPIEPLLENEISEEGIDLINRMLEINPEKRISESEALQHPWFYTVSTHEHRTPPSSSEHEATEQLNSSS
B2: Serine/threonine-protein kinase cds1 (Schizosaccharomyces pombe (strain ATCC 38366 / 972)), Q09170 (parent)
chain: B1 partner
partner: B1 chain

Variants of: B1
Settings: with rad53_schpo cds1, Q09170

Row | Variant | effect of a mutation on the interaction
1 | MDNLDEDDLAFFSKPIKKPPLNYAKQLIASSSDSEEESELDTNKQALEHINAQKNITHNENKSAEPLSRQSAILDADEGNQDVSDTTPNACLNEGRHSPKSAISCVTQPVSPVYNTRAAANLRNNSINSEAALSTTSSLLDDDFARRLEEIDRQVQEFEKSSSDMDVQIHTHKREIEEDDDNTSADVPLLKHSKSDHSTLYHSKSEFSTNEPVISVVLQLAVIGQRIPNSNSSLPRDWEAPLFFKVKSNRQFRRVRIAYSERKKVDNVVLVFQNQRLWDYGTPKGAGMLKVDTRLVVHAYCHSDFISLKRINELEVEKLSSVTEDSTAQTCKLITLLLRSSKSEDLRLSIPVDFTVKDLIKRYCTEVKISFHERIRLEFEGEWLDPNDQVQSTELEDEDQVSVVLD [T72A;I232S;Q250R;K312N] | disrupting interaction

Variants of: B2
Settings: with rad60_schpo rad60, Q9USX3

Row | Variant | effect of a mutation on the interaction
2 | MEEPEEATQATQEAPLHVSQNIAKQVVNNENVFMKLVMTRMLDGKTEVIPLTTDVHNGFWRFGRHKSCEVVLNGPRVANFAFEIYQGHRNDSDESENVVFLHDHSSNGTFLNFERLAKNSRTILSNGDEIRIGLGVPKDEISFLCQVPVKHSRDSQKNMIKSENSHYEIIRTLGSGTFAVVKLAVEVNSGKWYAIKIINKRKILLTSSEKRATEMFQREIDILKSLHHPGVVQCHEIFENDDELFIVMEYVEGGDLMDFLIANGSIDEQDCKPLLKQLLETLLHLHKQGVTHRDIKPENILITNDFHLKISDFGLAKVIHGTGTFLETFCGTMGYLAPEVLKSKNVNLDGGYDDKVDIWSLGCVLYVMLTASIPFASSSQAKCIELISKGAYPIEPLLENEISEEGIDLINRMLEINPEKRISESEALQHPWFYTVSTHEHRTPPSSSEHEATEQLNSSS [S78A;H81A] | disrupting interaction

Source: IntAct's records for PubMed 12897162
